Test [1] has as its target Factor D in C1q-depleted human serum (human) (UniProt P00746). Nature of the test: cell-based or functional assay.
In test [2] the target is recombinant human Factor D (human) (UniProt P00746). Nature of the test: cell-based or functional assay.

“Lampalizumab subjected to oxidation conditions (30 mM AAPH) (Fab)” registered a Hemolytic Mean (rabbit erythrocyte lysis assay; Oxidized, 30 mM AAPH) in test [1] of 82. The TR-FRET Activity (Oxidized, 30 mM AAPH) in test [2] turned out to be 63%.
In test [1], Lampalizumab (Fab) came in with a Hemolytic Mean (rabbit erythrocyte lysis assay; Thermal control) of 96 and a Hemolytic Mean (rabbit erythrocyte lysis assay; Unstressed control) of 81. In test [2], the TR-FRET Activity (Thermal control) is 103% and the TR-FRET Activity (Unstressed control) was 93%.
Take “Lampalizumab subjected to thermal stress (Fab)”: the Hemolytic Mean (rabbit erythrocyte lysis assay; Thermal Stress) in test [1] came to 102. Besides, the TR-FRET Activity (Thermal Stress) in test [2] came to 86%.

Values taken from US20170122944A1.
